# In patent US20150164800A1, “REGULATING THE INTERACTION BETWEEN TAM LIGANDS AND LIPID MEMBRANES WITH EXPOSED PHOSPHATIDYL SERINE” (priority 2012, published 2015):
# Key:
# [1] = target: T1, Mer (Mus musculus, UniProt Q60805); test: Gas6-stimulated TAM receptor activation (phosphotyrosine IP-immunoblot) in BMDMs, Mer; assay type: cell-based; details: WT-BMDMs pre-treated 30 min, stimulated with 10 nM Gas6 for 10 min; FIG. 4B
# Experimental: Immunoprecipitation and immunoblot analysis was conducted as described above.
# [2] = tested on: EbGP-pseudotyped virus; assay type: cell-based, mouse; details: 300 nM, 24 h post-infection, FIG. 4C
# [3] = target: Axl (Mus musculus, UniProt Q00993); assay type: cell-based
# Axl (Mus musculus, UniProt Q00993), sequence (Q00993 19-888): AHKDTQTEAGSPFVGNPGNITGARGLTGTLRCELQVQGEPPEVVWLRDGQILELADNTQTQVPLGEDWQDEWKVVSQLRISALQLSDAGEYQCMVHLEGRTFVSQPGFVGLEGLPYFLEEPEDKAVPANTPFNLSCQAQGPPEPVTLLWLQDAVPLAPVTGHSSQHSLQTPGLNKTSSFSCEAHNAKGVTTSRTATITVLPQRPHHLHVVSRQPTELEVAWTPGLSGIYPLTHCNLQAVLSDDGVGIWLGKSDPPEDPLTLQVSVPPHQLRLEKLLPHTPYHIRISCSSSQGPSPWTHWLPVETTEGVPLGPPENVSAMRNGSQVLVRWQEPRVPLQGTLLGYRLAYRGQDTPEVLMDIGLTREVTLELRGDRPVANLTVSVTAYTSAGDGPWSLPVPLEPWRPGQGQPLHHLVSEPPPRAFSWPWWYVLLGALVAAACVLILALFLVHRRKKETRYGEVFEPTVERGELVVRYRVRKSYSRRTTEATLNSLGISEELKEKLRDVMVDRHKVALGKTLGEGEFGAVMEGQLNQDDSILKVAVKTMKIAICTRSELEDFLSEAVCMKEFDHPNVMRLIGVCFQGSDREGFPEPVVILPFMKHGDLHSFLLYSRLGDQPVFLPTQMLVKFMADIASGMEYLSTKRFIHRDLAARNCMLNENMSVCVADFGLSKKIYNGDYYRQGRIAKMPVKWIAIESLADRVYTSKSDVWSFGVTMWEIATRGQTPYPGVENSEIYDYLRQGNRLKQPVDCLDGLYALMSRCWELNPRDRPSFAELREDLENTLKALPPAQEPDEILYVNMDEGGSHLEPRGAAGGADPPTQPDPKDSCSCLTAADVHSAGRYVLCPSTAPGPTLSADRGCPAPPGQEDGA
# [4] = target: T1, Mer; assay type: cell-based; details: WT-BMDCs
# [5] = tested on: Axl; assay type: cell-based, mouse; details: 100 nM, BMDCs; FIG. 5B
# Axl, sequence (Q00993 19-888): as above
# [6] = tested on: DENV; details: Axl-expressing HEK293 cells; concentration approximately 7-fold higher than 100 nM; Meertens et al. (2012); cited from earlier work
# T1 sequence (Q60805 19-994): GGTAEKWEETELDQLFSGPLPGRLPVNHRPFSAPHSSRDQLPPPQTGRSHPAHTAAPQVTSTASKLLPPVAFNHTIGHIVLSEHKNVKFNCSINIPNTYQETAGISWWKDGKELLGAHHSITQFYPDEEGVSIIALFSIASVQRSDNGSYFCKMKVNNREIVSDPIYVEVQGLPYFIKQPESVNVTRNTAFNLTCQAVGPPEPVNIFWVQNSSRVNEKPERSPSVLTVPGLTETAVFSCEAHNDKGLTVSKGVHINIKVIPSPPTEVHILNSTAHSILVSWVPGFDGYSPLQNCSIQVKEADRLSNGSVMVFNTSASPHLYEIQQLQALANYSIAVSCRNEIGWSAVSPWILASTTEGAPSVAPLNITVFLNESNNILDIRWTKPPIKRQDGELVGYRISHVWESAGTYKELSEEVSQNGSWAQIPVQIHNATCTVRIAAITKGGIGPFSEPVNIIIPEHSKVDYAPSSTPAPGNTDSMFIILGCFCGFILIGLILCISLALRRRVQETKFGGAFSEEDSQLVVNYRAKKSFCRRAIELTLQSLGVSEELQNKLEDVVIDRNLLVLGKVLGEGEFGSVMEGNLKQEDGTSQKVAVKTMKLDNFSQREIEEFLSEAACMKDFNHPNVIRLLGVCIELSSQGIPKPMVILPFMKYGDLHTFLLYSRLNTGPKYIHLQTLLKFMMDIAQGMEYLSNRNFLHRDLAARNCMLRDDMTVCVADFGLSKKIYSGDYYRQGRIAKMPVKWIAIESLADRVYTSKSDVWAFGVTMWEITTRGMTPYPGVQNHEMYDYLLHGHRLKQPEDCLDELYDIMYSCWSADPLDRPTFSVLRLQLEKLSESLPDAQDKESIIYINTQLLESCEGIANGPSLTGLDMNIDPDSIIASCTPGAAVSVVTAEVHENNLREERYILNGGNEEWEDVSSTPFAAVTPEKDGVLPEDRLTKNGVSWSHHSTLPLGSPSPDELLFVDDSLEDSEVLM
molecule,measurement,setting,value
CCOc1ccn(-c2ccc(F)cc2)c(=O)c1C(=O)Nc1ccc(Oc2ccnc(N)c2Cl)c(F)c1 [BMS-777607],concentrations effectively inhibiting ligand-dependent receptor activation (Mer),[1],30 to 300 nM
same,effect on infection deficiency of TAM TKO BMDCs (HIV-1 DNA level),[2]; TAM TKO-BMDCs,not further reduced
same,susceptibility to virus infection (HIV-1 DNA level) versus untreated WT BMDCs,[2]; WT-BMDCs,much less susceptible
"Gas6: recombinant mouse Gas6, pan-TAM ligand",potentiation of Gas6-induced Axl activation by bald HIV-1 virions versus VSVg-pseudotyped virions,"[3]; BMDCs, bald virions lacking viral glycoproteins, FIG. 6B",equally competent
same,virus-mediated potentiation of ligand-triggered signaling with MAV-1 (Axl),"[3]; WT-BMDCs, 1 nM mGas6 plus non-enveloped MAV-1",not seen
same,Axl activation by ligand alone,"[3]; WT-BMDCs, 0.25-1 nM mGas6, 5 min, FIG. 2B",rapid dose-dependent activation
same,effect of VSVg pseudotyped virus on stimulatory effect of ligand (Axl activation),"[3]; WT-BMDCs, ligand plus enveloped VSVg pseudotyped virus, dose-response shifted to lower concentrations",dramatically potentiated
"Protein S: purified human Protein S, TAM ligand (Mer and Tyro3 ligand)",virus-mediated potentiation of ligand-triggered signaling with MAV-1 (Mer),[4]; 1 nM hProS plus non-enveloped MAV-1,not seen
same,Mer activation by ligand alone,"[4]; 0.5-2 nM hProS, 5 min, FIG. 2A",rapid dose-dependent activation
same,effect of VSVg pseudotyped virus on stimulatory effect of ligand (Mer activation),"[4]; ligand plus enveloped VSVg pseudotyped virus, dose-response shifted to lower concentrations",dramatically potentiated
"Annexin V: a known PtdSer-binding protein (protein, UniProt P08758 2-320, looked up) Annexin A5: AQVLRGTVTDFPGFDERADAETLRKAMKGLGTDEESILTLLTSRSNAQRQEISAAFKTLFGRDLLDDLKSELTGKFEKLIVALMKPSRLYDAYELKHALKGAGTNEKVLTEIIASRTPEELRAIKQVYEEEYGSSLEDDVVGDTSGYYQRMLVVLLQANRDPDAGIDEAQVEQDAQALFQAGELKWGTDEEKFITIFGTRSVSHLRKVFDKYMTISGFQIEETIDRETSGNLEQLLLAVVKSIRSIPAYLAETLYYAMKGAGTDDHTLIRVMVSRSEIDLFNIRKEFRKNFATSLYSMIKGDTSGDYKKALLLLCGEDD",effect on VSVg-HIV potentiation of the Gas6 dose-response curve for Axl activation,[5],significantly attenuated
same,reduction in DENV infection,[6],~60%
